The source of these data is article PMC6289052.

The test system of one data set is TCF4 DBD (mouse). The data set is described as follows: PBM. To be noted: not given in the material (PBM protein binding as described previously).
The next data set relates to USF1 DBD (mouse). The data set can be described thus: PBM. To be noted: not given in the material (PBM protein binding as described previously).

Substance CAGGTGGT, cytosine gave a binding signal with TCF4 DBD (mouse) of 52 Z-score. In the data set with USF1 DBD (mouse), GTCACGTG, cytosine showed a binding signal of 87 Z-score.
